Molecular target: T1, recombinant glutathione-S-transferase (GST)-tagged SETD6 (UniProt Q8TBK2 1-473)
T1 construct: SET domain-containing protein 6 (SETD6), a 53 kDa protein lysine methyltransferase; also called GST-SETD6; GST SETD6
T1 sequence (looked up): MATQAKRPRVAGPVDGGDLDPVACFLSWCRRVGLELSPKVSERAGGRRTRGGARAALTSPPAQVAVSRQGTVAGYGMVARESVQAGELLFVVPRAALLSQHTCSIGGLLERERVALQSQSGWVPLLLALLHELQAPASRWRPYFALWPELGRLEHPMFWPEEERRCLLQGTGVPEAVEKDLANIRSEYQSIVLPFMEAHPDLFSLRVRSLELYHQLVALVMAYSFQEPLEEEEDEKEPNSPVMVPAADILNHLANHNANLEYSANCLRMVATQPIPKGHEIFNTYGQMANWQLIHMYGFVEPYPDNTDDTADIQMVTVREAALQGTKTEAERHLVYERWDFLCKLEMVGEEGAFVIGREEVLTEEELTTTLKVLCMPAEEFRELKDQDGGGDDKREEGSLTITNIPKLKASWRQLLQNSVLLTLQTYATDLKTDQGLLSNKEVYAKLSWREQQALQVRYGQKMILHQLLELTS
Assay: ELISA; His-SUMO-E2F1 (2 ug) in PBS immobilised on a 96-well plate, 1 h room temperature, blocked with 3% BSA; 0.5 ug GST-SETD6 in 1% BSA in PBS and Tween-20 for 1 h at room temperature; detected with anti-GST and HRP-conjugated secondary antibody, absorbance at 450 nm
Details: both partners purified

binding result: binds
B1: recombinant His-SUMO-E2F1 (natural protein)
chain: not shown
notes: the same insert was cloned into pET-SUMO and pGEX-6p1; also called His-SUMO-E2F1 WT; source: E. coli Rosetta, purified (nickel-nitrilotriacetic acid beads or HisTrap column)

— PMC10551896, “Methylation of the transcription factor E2F1 by SETD6 regulates SETD6 expression via a positive feedback mechanism” (The Journal of Biological Chemistry, 2023)
